B1: RSPH3 (parent)
chain: QRLEEQERRHREEKERRKKQQWEI

Variants of: B1
Assay: protein stability index of a GFP-peptide fusion (GPS, HEK-293T) (PSI 1-6); higher = more stable
Conditions: c terminus: a fixed tail appended
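Also: lentivirally expressed fusions sorted by FACS into six bins by GFP to DsRed ratio, PSI derived from sequencing read proportions per bin multiplied by bin number.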

Protein stability index: each site, then its substitutions
R2: F 4.48 | A 4.57 | P 4.1 | K 4.26 | E 5.24 | S 5 | C 4.58 | H 4.53
E5: W 3.98 | R 4.13 | Y 4.28 | T 4.01 | M 4.59 | I 4.62 | Q 5.01 | H 4.59 | N 3.67
E23: V 3.18 | K 4.42 | F 3.42 | L 4.21 | S 3.9
E12: I 3.64 | N 4.57 | R 4.37 | Y 3.78 | D 5 | Q 4.2
Q21: W 4.48 | I 4.03 | K 4.71 | D 5.22 | N 4.67 | F 4.46 | H 4.39 | R 4.46 | S 3.71 | L 4.53 | T 4.68 | A 4.43
R8: L 3.69 | K 4.33 | D 4.79 | Y 4.24 | V 5.02 | S 4.64 | T 4.97
Q20: R 4.12 | G 4.65 | H 4.16 | Y 4.19 | P 4.68 | V 3.64 | N 4.56
R17: H 4.53 | A 4.94 | K 4.92 | Y 4.96 | S 4.72 | C 4.59 | I 3.87
E13: W 3.34 | A 3.79 | P 4.06 | Q 4.52 | G 4.55 | H 4.19 | N 4.16 | F 3.72 | C 3.82 | M 3.99 | L 3.95 | V 4.14
R11: A 4.91 | H 4.51 | F 4.64 | Q 4.67 | Y 4.68 | C 4.83 | K 4.23 | M 4.6 | G 5.08 | V 4.24
K14: Y 4.34 | I 3.76 | A 4.83 | E 5.13 | L 3.94 | P 4.55 | C 4.63
K19: F 4.02 | Y 4.47 | L 4.59 | E 4.98 | C 4.9 | V 4.59 | G 4.33 | M 4.79 | R 4.78 | N 4.59
E4: A 4.21 | M 4.1 | Q 4.46 | F 4.47 | K 4.44 | C 4.38 | W 4.04 | N 4.9 | Y 3.67 | I 4.17 | S 4.84 | P 4.48
K18: Y 3.59 | L 4.27 | F 4.43 | N 4.28 | A 4.46 | M 4.6 | E 4.6 | T 4.68 | P 4.72 | Q 4.83 | C 4.32
H10: T 4.79 | R 3.69 | F 4.48 | P 4.44 | K 4.84 | D 4.38
L3: Y 4.43 | I 5 | S 4.91 | E 5.28 | V 4.82 | C 4.36
R16: M 5.04 | Q 4.75 | L 4.67 | A 4.5 | E 5.23 | D 5.37 | I 5 | K 4.57 | N 4.82 | T 5.11 | Y 4.74
I24: L 4.78 | R 5.14 | H 4.46 | W 4.51 | G 4.83
E15: R 3.75 | L 4.63 | F 3.92 | T 4.7 | H 3.91 | N 5.12 | C 3.74 | G 4.36 | D 4.68
Q6: V 4.85 | F 4 | L 4.49 | I 4.62 | W 4.18 | D 4.6 | M 3.96

Source: the supplement of paper PMC10567573
